Test results reported in the supplement of paper PMC9112550, “Optimization of the antimicrobial peptide Bac7 by deep mutational scanning” (BMC Biology, 2022).

Test system: Escherichia coli TOP10
Assay: shrunken log2 fold change of peptide-encoding DNA abundance (4.5 h post-induction vs induction); higher = less antimicrobial activity (less host growth inhibition)
Settings: time post-induction: 4.5 h; library: site-saturation at positions 5, 18, 19, 20
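Note: peptides expressed intracellularly from a pBAD plasmid library in pooled LB shake-flask culture, induced with 0.3% L-arabinose, DNA abundance read by NGS, three biological replicates, DESeq2 with apeglm shrinkage.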

Sequence	shrunken log2 fold change
RRIRCRPPRLPRPRPRPSHNPRP	-0.628
RRIRKRPPRLPRPRPRPQCVPRP	0.117
RRIRSRPPRLPRPRPRPYQTPRP	-0.0406
RRIRDRPPRLPRPRPRPTFFPRP	2.16
RRIRPRPPRLPRPRPRPCKHPRP	-0.131
RRIRCRPPRLPRPRPRPATMPRP	-0.0924
RRIRHRPPRLPRPRPRPHCLPRP	-0.777
RRIRYRPPRLPRPRPRPYYNPRP	-0.231
RRIRHRPPRLPRPRPRPFCAPRP	0.076
RRIRPRPPRLPRPRPRPVMRPRP	0.95
RRIRNRPPRLPRPRPRPHKDPRP	-0.737
RRIRPRPPRLPRPRPRPDLDPRP	0.114
RRIRWRPPRLPRPRPRPGISPRP	-0.00138
RRIRPRPPRLPRPRPRPGDEPRP	0.156
RRIRYRPPRLPRPRPRPTRFPRP	0.0879
RRIRSRPPRLPRPRPRPQAAPRP	0.544
RRIRHRPPRLPRPRPRPLFQPRP	-0.108
RRIRERPPRLPRPRPRPTWQPRP	0.0759
RRIRPRPPRLPRPRPRPRDCPRP	0.277
RRIRARPPRLPRPRPRPNTKPRP	-0.124
RRIRHRPPRLPRPRPRPPWEPRP	0.193
RRIRERPPRLPRPRPRPHKYPRP	-0.902
RRIRVRPPRLPRPRPRPRLHPRP	0.0296
RRIRYRPPRLPRPRPRPCGGPRP	0.00427
RRIRPRPPRLPRPRPRPHAMPRP	-0.0838

Sequence	shrunken log2 fold change
RRIRDRPPRLPRPRPRPHYKPRP	-0.297
RRIRERPPRLPRPRPRPLCVPRP	-0.307
RRIRMRPPRLPRPRPRPHQLPRP	-0.0373
RRIRRRPPRLPRPRPRPFHIPRP	-0.0758
RRIRVRPPRLPRPRPRPERRPRP	0.13
RRIRLRPPRLPRPRPRPVVNPRP	-0.0535
RRIRERPPRLPRPRPRPPCPPRP	1.27
RRIRIRPPRLPRPRPRPDFTPRP	-0.355
RRIRWRPPRLPRPRPRPQHLPRP	-0.678
RRIRGRPPRLPRPRPRPMSVPRP	0.0559
RRIRGRPPRLPRPRPRPNKVPRP	0.0962
RRIRYRPPRLPRPRPRPKNFPRP	-0.663
RRIRNRPPRLPRPRPRPYIPPRP	-0.36
RRIRPRPPRLPRPRPRPQGLPRP	-0.122
RRIRWRPPRLPRPRPRPDTHPRP	0.219
RRIRMRPPRLPRPRPRPFGWPRP	0.32
RRIRDRPPRLPRPRPRPRFLPRP	-0.201
RRIRERPPRLPRPRPRPKREPRP	0.118
RRIRIRPPRLPRPRPRPNETPRP	-0.0216
RRIRFRPPRLPRPRPRPNRDPRP	-0.0824
RRIRIRPPRLPRPRPRPQLFPRP	0.667
RRIRDRPPRLPRPRPRPDQPPRP	-0.00151
RRIRMRPPRLPRPRPRPRIFPRP	0.011
RRIRVRPPRLPRPRPRPTPLPRP	0.251
RRIRTRPPRLPRPRPRPRRGPRP	0.604

Sequence	shrunken log2 fold change
RRIRHRPPRLPRPRPRPQRIPRP	-0.00331
RRIRHRPPRLPRPRPRPATPPRP	0.299
RRIRERPPRLPRPRPRPWAQPRP	-0.0813
RRIRTRPPRLPRPRPRPSYTPRP	-0.761
RRIRDRPPRLPRPRPRPSTQPRP	0.445
RRIRSRPPRLPRPRPRPQHWPRP	0.015
RRIRKRPPRLPRPRPRPQFFPRP	-0.493
RRIRMRPPRLPRPRPRPHTKPRP	0.137
RRIRTRPPRLPRPRPRPTQVPRP	0.131
RRIRKRPPRLPRPRPRPIGEPRP	-0.0126
RRIRQRPPRLPRPRPRPKCQPRP	0.0473
RRIRHRPPRLPRPRPRPARIPRP	0.0499
RRIRIRPPRLPRPRPRPHDKPRP	-0.74
RRIRKRPPRLPRPRPRPWMIPRP	0.0508
RRIRLRPPRLPRPRPRPVTAPRP	0.213
RRIRLRPPRLPRPRPRPSKQPRP	-0.572
RRIRLRPPRLPRPRPRPMKEPRP	-0.019
RRIRIRPPRLPRPRPRPYRGPRP	-0.155
RRIRDRPPRLPRPRPRPCEFPRP	0.013
RRIRARPPRLPRPRPRPCKPPRP	-0.331
RRIRFRPPRLPRPRPRPIKEPRP	-0.113
RRIRLRPPRLPRPRPRPIWHPRP	-0.0382
RRIRHRPPRLPRPRPRPHGAPRP	-0.183
RRIRMRPPRLPRPRPRPNILPRP	0.057
RRIRERPPRLPRPRPRPAKWPRP	0.0478

Sequence	shrunken log2 fold change
RRIRDRPPRLPRPRPRPVPIPRP	0.245
RRIRWRPPRLPRPRPRPLDQPRP	-0.0549
RRIRNRPPRLPRPRPRPTCYPRP	-0.226
RRIRTRPPRLPRPRPRPYPPPRP	-0.203
RRIRKRPPRLPRPRPRPCMPPRP	0.0752
RRIRYRPPRLPRPRPRPWVEPRP	0.0344
RRIRGRPPRLPRPRPRPNFKPRP	0.142
RRIRQRPPRLPRPRPRPCPVPRP	-0.477
RRIRGRPPRLPRPRPRPMSLPRP	-0.0288
RRIRTRPPRLPRPRPRPHQRPRP	-0.0533
RRIRDRPPRLPRPRPRPYCAPRP	-0.204
RRIRYRPPRLPRPRPRPYMDPRP	-0.14
RRIRWRPPRLPRPRPRPNRPPRP	0.078
RRIRRRPPRLPRPRPRPLWDPRP	0.56
RRIRNRPPRLPRPRPRPSRVPRP	0.0304
RRIRMRPPRLPRPRPRPRHNPRP	-0.0227
RRIRYRPPRLPRPRPRPLKIPRP	-0.134
RRIRVRPPRLPRPRPRPQYMPRP	-0.554
RRIRSRPPRLPRPRPRPCRPPRP	-0.584
RRIRKRPPRLPRPRPRPTAKPRP	0.00802
RRIRHRPPRLPRPRPRPINQPRP	-0.243
RRIRLRPPRLPRPRPRPPALPRP	0.696
RRIRPRPPRLPRPRPRPSSNPRP	-0.388
RRIRKRPPRLPRPRPRPEANPRP	0.0281
RRIRQRPPRLPRPRPRPKHYPRP	-0.223

Sequence	shrunken log2 fold change
RRIRHRPPRLPRPRPRPNTEPRP	-0.038
RRIRDRPPRLPRPRPRPNKVPRP	-0.494
RRIRVRPPRLPRPRPRPEVYPRP	-0.0457
RRIRLRPPRLPRPRPRPVLVPRP	-0.161
RRIRHRPPRLPRPRPRPCDCPRP	-0.138
RRIRDRPPRLPRPRPRPVQTPRP	-0.0375
RRIRFRPPRLPRPRPRPGPFPRP	0.14
RRIRARPPRLPRPRPRPAEHPRP	0.193
RRIRHRPPRLPRPRPRPFAMPRP	-0.424
RRIRGRPPRLPRPRPRPDGGPRP	0.468
RRIRSRPPRLPRPRPRPQPVPRP	0.0573
RRIRQRPPRLPRPRPRPGEVPRP	-0.102
RRIRDRPPRLPRPRPRPGFTPRP	0.125
RRIRPRPPRLPRPRPRPCNHPRP	-0.227
RRIRIRPPRLPRPRPRPVYDPRP	-0.0144
RRIRSRPPRLPRPRPRPLNKPRP	-0.343
RRIRHRPPRLPRPRPRPGEKPRP	-0.102
RRIRRRPPRLPRPRPRPEVCPRP	0.793
RRIRARPPRLPRPRPRPTSTPRP	0.0502
RRIRQRPPRLPRPRPRPMYGPRP	-0.0233
RRIRWRPPRLPRPRPRPQQHPRP	-0.056
RRIRMRPPRLPRPRPRPYHFPRP	-0.16
RRIRCRPPRLPRPRPRPFYQPRP	-0.163
RRIRYRPPRLPRPRPRPGPKPRP	0.185
RRIRMRPPRLPRPRPRPDLAPRP	1.4

Sequence	shrunken log2 fold change
RRIRLRPPRLPRPRPRPTWDPRP	0.183
RRIRYRPPRLPRPRPRPWEAPRP	-0.271
RRIRRRPPRLPRPRPRPVALPRP	0.225
RRIRRRPPRLPRPRPRPQQFPRP	0.0492
RRIRNRPPRLPRPRPRPPPSPRP	1
RRIRVRPPRLPRPRPRPCQEPRP	-0.68
RRIRVRPPRLPRPRPRPWSAPRP	-0.135
RRIRGRPPRLPRPRPRPARKPRP	0.222
RRIRQRPPRLPRPRPRPDWAPRP	-0.012
RRIRRRPPRLPRPRPRPAYRPRP	0.108
RRIRYRPPRLPRPRPRPYCKPRP	-1.32
RRIRWRPPRLPRPRPRPNLDPRP	0.278
RRIRRRPPRLPRPRPRPKQMPRP	0.29
RRIRDRPPRLPRPRPRPTTDPRP	0.547
RRIRRRPPRLPRPRPRPDLHPRP	0.308
RRIRGRPPRLPRPRPRPMERPRP	1.36
RRIRIRPPRLPRPRPRPDGCPRP	-0.229
RRIRFRPPRLPRPRPRPELRPRP	-0.0629
RRIRPRPPRLPRPRPRPNTEPRP	-0.124
RRIRNRPPRLPRPRPRPNPFPRP	-0.0489
RRIRHRPPRLPRPRPRPWLSPRP	-0.0373
RRIRQRPPRLPRPRPRPCYAPRP	-0.251
RRIRRRPPRLPRPRPRPYPPPRP	-0.176
RRIRPRPPRLPRPRPRPKCPPRP	0.131
RRIRHRPPRLPRPRPRPHRHPRP	-0.2
